Data published in paper PMC12192291, “Ancestral [Fe-S] biogenesis system SMS has a unique mechanism of cluster assembly and sulfur utilization” (PLOS Biology, 2025).

B1: SmsC from Methanocaldococcus jannaschii (enzyme)
chain: MVSIMLLKVEDLHVYRGNREILKGVNLTVEENEIHAIIGPNGAGKSTLAYTIMGISGYKPTKGRIIFKGVDIIDKNITERARMGMTLAWQEPARFEGIKVKNYLMLGMNEKYKKDKEIAEEKIREALKLVNLDPDKYLDRYVDETLSGGERKRIELASIICMEPDLAILDEPDSGIDIVSFDEIKRVFDYLKDKGCSLLVITHREELAEHADRVSLICAGEVIKSGDPKEVGEFYKKECGKCYKKVPDGK
notes: SmsC, Methanocaldococcus jannaschii, ABC ATPase subunit of the SMS system; Monomer in solution without nucleotide; two copies in SmsC2B2; In the cryo-EM sample one of the two copies carries a [4Fe-4S] cluster; also called apo-SmsC; source: E. coli MG1655(DE3) (FBE682), purified (HisTrap, TEV protease, Ni-NTA, SEC); not shown: His6, N-terminal, cleaved
B2: SmsB from Methanocaldococcus jannaschii (natural protein)
chain: MSIKEELMEIIEAIKYTSEKPEEIVHGKGPRIIVKESRIIDVQGDEGIILEGKEEDGKIKAKIIVKKGYKFKYPIHMCFGITEENISQIIDVEIILEEDSSISLMSHCSFPKGKGIKHIMNGIIKIGKNAKFSYNEFHYHGMDGDILVKPTVKVEIDEGGIYISNFTLTKGRIGTLDIEQEIIAKKDAIIDITTRTYAIKEDVVKVNEVVKLNGENAKCIIKSRGAAMDNSKISLKLKIEGNAPYSKGHIDCAEIVKGNAEVESIPIVVVRDDKARITHEAAIGSVDKKQLETLMAKGLDEDEATEIIVKGMIGDL
notes: SmsB, Methanocaldococcus jannaschii, subunit of the SMS system; Mainly a homodimer in solution; two copies in SmsC2B2; also called SmsB2; source: E. coli MG1655(DE3) (FBE682), purified (HisTrap, TEV protease, Ni-NTA, SEC); not shown: His6, N-terminal, cleaved

Experiments:
[1] = target: T1, SmsC (Methanocaldococcus jannaschii, UniProt Q60350); test: ligand-induced dimerization by size exclusion chromatography; blocks [Fe-S] reconstitution on SmsC2B2; format: binding; set-up: gene MJ0035; SmsC, His-tag removed
T1 sequence (Q60350 1-250): B1 chain

[2] = target: T1, SmsC; test: enzyme-coupled ATPase assay (PK/LDH) on purified protein; format: biochemical; set-up: gene MJ0035; SmsC alone and SmsC2B2 complex
[3] = target: the molecule itself; test: cryo-EM structure; chemically reconstituted [4Fe-4S]-bound SmsC2B2, prepared under anoxic conditions and quickly vitrified (9H78, EMD-51913)
[4] = target: B2; test: SEC; calibrated Hiload 600 Superdex 200, 50 mM Tris-HCl pH 7.8, 100 mM NaCl, 1 mM DTT; no nucleotide; for the complex SmsB2 and SmsC were mixed in molar amounts corresponding to SmsC2B2 and incubated overnight; conditions: both partners purified
[5] = target: the molecule itself; test: as above

Nc1ncnc2c1ncn2[C@@H]1O[C@H](CO[P@](=O)(O)O[P@](=O)(O)CP(=O)(O)O)[C@@H](O)[C@H]1O [AMP-PCP]
ligand-induced dimerization by size exclusion chromatography; blocks [Fe-S] reco [1]: Incubation of SmsC with excess of adenosine-5′-[(β,γ)-methyleno]triphosphate (AMP-PCP) led to SmsC dimer formation

Nc1ncnc2c1ncn2[C@@H]1O[C@H](COP(=O)(O)OP(=O)(O)OP(=O)(O)O)[C@@H](O)[C@H]1O [ATP]
enzyme-coupled ATPase assay (PK/LDH) on purified protein [2]: 0.98 min⁻¹ (kcat)

B1
binding result [3]: binds | binding result [4]: binds

B2
stoichiometry N [5]: 2
